Two molecules from patent US10704030B2, “P450-BM3 variants with improved activity” (Codexis, Inc., priority 2015, dated 2020) can be followed below.

Holding throughout (format): biochemical
Data set [1] is described as follows: Validation of generalist properties: oxidation of gefitinib by lyophilized P450-BM3 variant, UPLC-MS. To be noted: [Gefitinib] = 1 mM; for TON: TON = [substrate]*% conversion/[P450]. The method, then:
(§1) For the production of lyophilized protein powders, LB agar plates supplemented with chloramphenicol (30 μg/mL) were streaked with E. coli containing a desired B. megaterium P450-BM3 variant in an IPTG-inducible vector. The plates were grown at 37° C. for 16 hrs before single clones were selected to inoculate a 15 mL Falcon™ tube (Fisher) containing TB media (3 mL) supplemented with chloramphenicol (30 μg/mL). The tube was shaken at 200 rpm, 30° C., and 85% humidity for 20-24 h to grow the cultures to saturation. Then, 2.5 mL of the overnight culture was used to inoculate sterile 1 L flasks containing TB medium (250 mL) supplemented with chloramphenicol (30 μg/mL), trace element solution (as described above), and 0.05 g/L ammonium iron (III) citrate. After being shaken at 250 rpm, 30° C., and 85% humidity to an OD600 of 0.8-1.2, P450 expression was induced by addition of IPTG (500 uM) and the heme precursor 5-aminolevulinic acid (5-ALA) to a final concentration of 500 uM. The cultures were grown for additional 20-24 hours and centrifuged in pre-weighed 250 mL centrifuge bottles for 20 minutes at 4000 rpm, 4° C. The supernatants were discarded, and the centrifuge bottles containing cell pellets were weighed. The pellets were resuspended in 50 mM potassium phosphate buffer with 2 mM DTT, pH 8.0 (5 mL of buffer per gram of cell pellet). The cells were lysed using a microfluidizer homogenizer, and the suspensions of cells and lysate were collected in sterile 50 mL centrifuge tubes. The samples were centrifuged for 30 minutes at 10,000 rpm, 4° C. The clarified lysate was collected into a plastic petri plate and frozen at −80° C. prior to lyophilization. The enzyme-containing lysates were lyophilized using standard methods known in the art.
(§2) Enzyme stocks (˜12 μM) were prepared by dissolving ˜20 mg of each enzyme in 100 mM potassium phosphate buffer, pH 8.0 (1 mL). The concentration of each enzyme stock solution was determined by the UV-visible absorption spectroscopy (after centrifugation to remove particulates) and diluted to standardize at 12 μM heme protein. Substrate solutions were prepared by dissolving each substrate in DMSO to reach a final concentration of 20 mM or 40 mM. Reaction mix (235 μL) followed by enzyme solution (50 μL) was added to the plates. The substrate stock solution was added to the enzyme solutions (15 μL at the two different concentrations). Each reaction contained 100 mM potassium phosphate, 1.0 mM NADP+, 25 mM glucose, 0.5 mg/mL glucose dehydrogenase, 5% DMSO and substrate at 1 or 2 mM. Loratadine, imatinib, and gefitinib (See, FIG. 1) were selected as substrates in addition to diclofenac to validate improved BM3 variants. The reactions were shaken at 450 rpm at 30° C. over 24 hours. All reactions were diluted with acetonitrile to a final concentration of 0.5 mM substrate. The plates were then centrifuged at 3,000 g for 1 hour at 20° C. The supernatant was diluted 1:1 with acetonitrile, filtered using a 0.4 micron filter, and analyzed by UPLC-MS.
(§3) For UPLC-MS analysis, the quenched and filtered reactions were transferred to 96-well HTP plates for analysis by UPLC on a Waters Acquity H-class system equipped with an autosampler. 1 uL of quenched sample was injected onto an Acquity UPLC HSS T3 column, 100 Å, (1.8 um; 2.1×100 mm). The column was eluted at a constant flow rate of 0.6 mL/min; conditions with solvent A (0.05% trifluoroacetic acid v/v, in H2O) and solvent B (0.05% trifluoroacetic acid v/v, in acetonitrile) used to elute the products of the reaction were: 0-2 min, A/B 95:5; 2-2.9 min, A/B 5:95; 2.9-3 min, A/B 95:5; 3-3.5 min, A/B 95:5. Column eluent was monitored by PDA (200-600 nm) prior to MS analysis in positive ESI mode (desolvation temperature 350° C., 3.25 kV spray voltage, cone voltage 25V). The column eluent was diverted to waste for the first 0.7 minutes of the run. For the remainder of the LC run, both MS (m/z 95-600 scan range) and MS/MS were collected. […]

The nature of data set [2]: Validation of generalist properties: oxidation of imatinib by lyophilized P450-BM3 variant, UPLC-MS. To be noted: [Imatinib] = 1 mM; for TON: TON = [substrate]*% conversion/[P450]. The method, then:
as §1, §2, §3

Data set [3] is described as follows: Validation of generalist properties: oxidation of diclofenac by lyophilized P450-BM3 variant, UPLC-MS. To be noted: [Diclofenac] = 1 mM; for TON: TON = [substrate]*% conversion/[P450]. As for the experimental part:
as §1, §2, §3

Data set [4] in a line: Validation of generalist properties: oxidation of loratadine by lyophilized P450-BM3 variant, UPLC-MS. To be noted: [Loratadine] = 1 mM; for TON: TON = [substrate]*% conversion/[P450]. As for the experimental part: as §1, §2, §3
Where [5] appears, read: fold improvement over parent MCYP-1.2-A05.

B1: SEQ ID NO: 8: P450-BM3 parental backbone from the commercially available MCYP panel (MCYP-0343; Codexis) (protein)
chain: MTIKEMPQPKTFGELKNLPLLNTDKPVQALMKIADELGEIFKFEAPGRVTRYLSSQRLIKEACDESRFDKNLSQALKFARDFAGDGLFTSWTHEKNWKKAHNILLPSFSQQAMKGYHAMMVDIAVQLVQKWERLNADEYIEVPEDMTRLTLDTIGLCGFNYRFNSFYRDQPHPFIISMIRALDEVMNKLQRANPDDPAYDENKRQFQEDIKVMNDLVDKIIADRKASGEQSDDLLTQMLNGKDPETGEPLDDGNISYQIITFLIAGHETTSGLLSFALYFLVKNPHVLQKVAEEATRVLVDPVPSYKQVKQLKYVGMVLNEALRLWPTAPAFSLYAKEDTVLGGEYPLEKGDEVMVLIPQLHRDKTIWGDDVEEFRPERFENPSAIPQHAFKPFGNGQRACIGQQFALHEATLVLGMMLKHFDFEDHTNYELDIKETLTLKPEGFVVKAKSKKIPLGGIPSPSTEQSAKKVRKKAENAHNTPLLVLYGSNMGTAEGTARDLADIAMSKGFAPQVATLDSHAGNLPREGAVLIVTASYNGHPPDNAKQFVDWLDQASADEVKGVRYSVFGCGDKNWATTYQKVPAFIDETLAAKGAENIADRGEADASDDFEGTYEEWREHMWSDVAAYFNLDIENSEDNKSTLSLQFVDSAADMPLAKMHGAFSTNVVASKELQQPGSARSTRHLEIELPKEASYQEGDHLGVIPRNYEGIVNRVTARFGLDASQQIRLEAEEEKLAHLPLAKTVSVEELLQYVELQDPVTRTQLRAMAAKTVCPPHKVELEALLEKQAYKEQVLAKRLTMLELLEKYPACEMKFSEFIALLPSIRPRYYSISSSPRVDEKQASITVSVVSGEAWSGYGEYKGIASNYLAELQEGDTITCFISTPQSEFTLPKDPETPLIMVGPGTGVAPFRGFVQARKQLKEQGQSLGEAHLYFGCRSPHEDYLYQEELENAQSEGIITLHTAFSRMPNQPKTYVQHVMEQDGKKLIELLDQGAHFYICGDGSQMAPAVEATLMKSYADVHQVSEADARLWLQQLEEKGRYAKDVWAG
modifications: P450_BM3
Consider B1, for which the “% Conv.” value was “+ (0-5.00)” in data set [1], “++++ (15.01-20.00)” in data set [2], “++ (5.01-10.00)” in data set [3] and “++ (5.01-10.00)” in data set [4]. Further, the TON result in data set [1] was “‡ (0-1000)”; in data set [2], “‡‡‡‡ (10000-50000)”; in data set [3], “‡‡ (1001-5000)”; in data set [4] it was “‡‡ (1001-5000)”.

B2: Variant 8: P450-BM3 variant of SEQ ID NO: 2: D118R; L219Y; K236H; S353T; N579T; T582A; E624D; D727S (protein)
chain: MLMKQASAIPQPKTYGPLKNLPHLEKEQLSQSLWRIADELGPIFRFDFPGVSSVFVSGHNLVAEVCDEERFDKSIEGALEKVRAFSGDGLATSWTHEPNWRKAHNILMPTFSQRAMKRYHEKMVDIATQLIQKWSRLNPNEEIDVADDMTRLTLDTIGLCGFNYRFNSFYRDQPHPFITSMVRALDEAMNKLQRANPDDPAYDENKRQFQEDIKVMNDYVDSIIAERRANGDQDEHDLLARMLNVEDPETGEKLDDENIRFQIITFLIAGHETTSGLLSFAIYCLLTHPEKLKKAQEEADRVLTDDTPEYKQIQQLKYIRMVLNETLRLYPTAPAFSLYAKEDTVLGGEYPITKGQPVTVLIPKLHRDQNAWGPDAEDFRPERFEDPSSIPHHAYKPFGNGQRACIGMQFALQEATMVLGLVLKHFELINHTGYELKIKEALTIKPDDFKITVKPRKTAAINVQRKEQAEQSAKKVRKKAENAHNTPLLVLYGSNMGTAEGTARDLADIAMSKGFAPQVATLDSHAGNLPREGAVLIVTASYNGHPPDNAKQFVDWLDQASADEVKGVRYSVFGCGDKTWAATYQKVPAFIDETLAAKGAENIADRGEADASDDFEGTYEEWRDHMWSDVAAYFNLDIENSEDNKSTLSLQFVDSAADMPLAKMHGAFSTNVVASKELQQPGSARSTRHLEIELPKEASYQEGDHLGVIPRNYEGIVNRVTARFGLSASQQIRLEAEEEKLAHLPLAKTVSVEELLQYVELQDPVTRTQLRAMAAKTVCPPHKVELEALLEKQAYKEQVLAKRLTMLELLEKYPACEMKFSEFIALLPSIRPRYYSISSSPRVDEKQASITVSVVSGEAWSGYGEYKGIASNYLAELQEGDTITCFISTPQSEFTLPKDPETPLIMVGPGTGVAPFRGFVQARKQLKEQGQSLGEAHLYFGCRSPHEDYLYQEELENAQSEGIITLHTAFSRMPNQPKTYVQHVMEQDGKKLIELLDQGAHFYICGDGSQMAPAVEATLMKSYADVHQVSEADARLWLQQLEEKGRYAKDVWAG
modifications: P450_BM3
notes: L219Y; K236H; S353T; N579T; T582A; E624D; D727S
Consider B2, for which the “% Conv.” value in data set [1] is reported as “+ (0-5.00)”; in data set [2] it was “++++ (15.01-20.00)”; in data set [3], “+ (0-5.00)”; in data set [4], “++ (5.01-10.00)”. The TON entry in data set [1] is recorded as “‡ (0-1000)”; in data set [2] it was “‡‡‡ (5001-10000)”; in data set [3], “‡‡ (1001-5000)”; in data set [4], “‡‡ (1001-5000)”. For the same molecule, the “FIOPC (A05)” value in data set [1] (setting [5]) is recorded as “* (0.0-3.0)”; in data set [2] (setting [5]), “* (0.0-3.0)”; in data set [3] (setting [5]), “**** (10.01-15.00)”; in data set [4] (setting [5]) it was “**** (10.01-15.00)”.
